# Reference: PMC8233815
# Read-outs that look alike come from different tables or passages of the source.
# T1: Elk1 ETS domain (Homo sapiens, UniProt P19419 1-93)
# T1 sequence: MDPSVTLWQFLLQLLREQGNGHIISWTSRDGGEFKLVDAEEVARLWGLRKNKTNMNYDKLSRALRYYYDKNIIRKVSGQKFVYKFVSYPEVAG
# B1: E74 (dsDNA)
# DNA 1: CTGAATAACCGGAAGTAACTCATC
# DNA 2: GATGAGTTACTTCCGGTTATTCAG
# B2: SD1 (scrambled nonspecific) (dsDNA)
# DNA 1: CGCAAAAGCTGAGATGGCGTGCC
# DNA 2: GGCACGCCATCTCAGCTTTTGCG
# Legend:
# Elk1 ETS domain [1] = target: T1, Elk1 ETS domain; experiment: SPR
# Elk1 ETS domain [2] = target: T1, Elk1 ETS domain; experiment: SPR; remark: listed apart in the source
Binder,binding result (Elk1 ETS domain [1]),binding result (Elk1 ETS domain [2])
B1,binds,–
B2,–,no binding
